Data: US20220229068A1, “DETECTION OF PROTEIN TO PROTEIN INTERACTIONS” (THE GOVERNING COUNCIL OF THE UNIVERSITY OF TORONTO, priority 2019, published 2022)
Values belong to the substance of their own block, whether it stands above or below them.

Key:
[1] = target: SRC (prey, CIC format) (human) (UniProt P12931); experiment: SIMPL ELISA, bait-IN/prey-CIC
[2] = target: FOS (prey, CIC format) (human) (UniProt P01100); experiment: SIMPL ELISA, bait-IN/prey-CIC
[3] = target: T1, NRG1 (prey, CIC format) (human) (UniProt Q02297); experiment: SIMPL ELISA, bait-IN/prey-CIC
T1 sequence (looked up): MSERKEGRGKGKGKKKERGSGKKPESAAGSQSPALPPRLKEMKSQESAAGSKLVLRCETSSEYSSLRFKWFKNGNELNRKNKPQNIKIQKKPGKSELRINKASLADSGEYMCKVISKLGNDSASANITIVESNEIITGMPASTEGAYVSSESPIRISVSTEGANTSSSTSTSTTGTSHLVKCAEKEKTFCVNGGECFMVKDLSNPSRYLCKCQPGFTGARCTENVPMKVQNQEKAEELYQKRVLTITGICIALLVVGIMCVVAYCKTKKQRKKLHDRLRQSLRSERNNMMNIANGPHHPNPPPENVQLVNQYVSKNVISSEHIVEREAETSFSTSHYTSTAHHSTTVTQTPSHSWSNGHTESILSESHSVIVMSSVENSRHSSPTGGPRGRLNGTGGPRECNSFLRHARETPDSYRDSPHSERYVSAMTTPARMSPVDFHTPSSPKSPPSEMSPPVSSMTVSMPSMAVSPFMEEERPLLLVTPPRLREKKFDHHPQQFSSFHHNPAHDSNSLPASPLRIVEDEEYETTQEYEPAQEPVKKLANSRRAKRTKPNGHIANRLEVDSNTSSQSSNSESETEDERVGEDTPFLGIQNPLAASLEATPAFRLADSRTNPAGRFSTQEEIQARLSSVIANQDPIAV

[4] = target: HGS (prey, CIC format) (human) (UniProt O14964); experiment: SIMPL ELISA, bait-IN/prey-CIC
Sequence of HGS (prey, CIC format) (human) (O14964 whole entry): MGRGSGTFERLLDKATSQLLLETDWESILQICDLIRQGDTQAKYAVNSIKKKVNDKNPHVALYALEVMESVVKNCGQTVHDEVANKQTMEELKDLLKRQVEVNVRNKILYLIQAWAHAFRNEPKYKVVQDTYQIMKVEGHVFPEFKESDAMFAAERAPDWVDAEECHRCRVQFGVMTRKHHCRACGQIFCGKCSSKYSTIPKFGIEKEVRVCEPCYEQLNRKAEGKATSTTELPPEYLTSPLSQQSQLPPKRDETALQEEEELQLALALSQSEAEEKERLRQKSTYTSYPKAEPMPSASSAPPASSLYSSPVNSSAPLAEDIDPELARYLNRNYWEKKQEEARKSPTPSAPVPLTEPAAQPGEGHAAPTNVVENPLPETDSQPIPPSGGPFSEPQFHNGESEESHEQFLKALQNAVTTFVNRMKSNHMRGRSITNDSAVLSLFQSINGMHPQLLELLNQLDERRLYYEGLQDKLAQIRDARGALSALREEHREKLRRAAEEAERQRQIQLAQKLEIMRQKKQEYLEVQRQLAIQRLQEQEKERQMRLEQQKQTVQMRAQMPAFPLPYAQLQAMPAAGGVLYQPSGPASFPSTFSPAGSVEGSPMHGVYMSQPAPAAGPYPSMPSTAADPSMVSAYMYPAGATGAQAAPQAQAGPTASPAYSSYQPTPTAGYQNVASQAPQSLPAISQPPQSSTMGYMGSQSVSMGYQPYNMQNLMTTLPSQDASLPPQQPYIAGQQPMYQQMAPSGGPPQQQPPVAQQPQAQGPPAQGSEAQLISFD

[5] = target: GTF2F2 (prey, CIC format) (human) (UniProt P13984); experiment: SIMPL ELISA, bait-IN/prey-CIC
[6] = target: T2, NOD1 (prey, CIC format) (human) (UniProt Q9Y239); experiment: SIMPL ELISA, bait-IN/prey-CIC
T2 sequence (looked up): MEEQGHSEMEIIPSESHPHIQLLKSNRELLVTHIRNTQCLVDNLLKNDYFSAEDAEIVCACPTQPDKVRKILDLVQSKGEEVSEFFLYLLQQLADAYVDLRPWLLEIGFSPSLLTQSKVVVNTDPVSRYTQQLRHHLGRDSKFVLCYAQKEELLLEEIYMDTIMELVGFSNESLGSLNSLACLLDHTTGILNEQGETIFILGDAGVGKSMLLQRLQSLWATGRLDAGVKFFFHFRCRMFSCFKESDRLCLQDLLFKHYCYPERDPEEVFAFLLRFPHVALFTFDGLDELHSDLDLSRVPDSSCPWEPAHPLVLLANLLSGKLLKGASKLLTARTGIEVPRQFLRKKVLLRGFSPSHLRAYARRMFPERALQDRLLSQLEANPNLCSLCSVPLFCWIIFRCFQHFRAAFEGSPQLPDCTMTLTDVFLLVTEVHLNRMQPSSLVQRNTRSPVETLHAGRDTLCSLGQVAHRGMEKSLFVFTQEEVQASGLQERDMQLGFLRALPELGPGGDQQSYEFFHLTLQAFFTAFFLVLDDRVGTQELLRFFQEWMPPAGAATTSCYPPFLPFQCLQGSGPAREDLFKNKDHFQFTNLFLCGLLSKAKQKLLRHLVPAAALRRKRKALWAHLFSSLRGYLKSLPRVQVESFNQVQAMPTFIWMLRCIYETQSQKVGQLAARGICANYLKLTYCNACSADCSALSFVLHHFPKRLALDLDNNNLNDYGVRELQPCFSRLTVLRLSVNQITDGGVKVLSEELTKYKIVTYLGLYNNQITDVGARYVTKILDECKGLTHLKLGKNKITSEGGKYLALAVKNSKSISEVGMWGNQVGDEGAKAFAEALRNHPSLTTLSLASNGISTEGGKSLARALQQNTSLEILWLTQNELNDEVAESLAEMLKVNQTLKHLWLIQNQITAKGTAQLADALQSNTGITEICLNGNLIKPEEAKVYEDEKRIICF

[7] = target: IGFBP4 (prey, CIC format) (human) (UniProt P22692); experiment: SIMPL ELISA, bait-IN/prey-CIC
Sequence of IGFBP4 (prey, CIC format) (human) (P22692 22-258 limits assumed): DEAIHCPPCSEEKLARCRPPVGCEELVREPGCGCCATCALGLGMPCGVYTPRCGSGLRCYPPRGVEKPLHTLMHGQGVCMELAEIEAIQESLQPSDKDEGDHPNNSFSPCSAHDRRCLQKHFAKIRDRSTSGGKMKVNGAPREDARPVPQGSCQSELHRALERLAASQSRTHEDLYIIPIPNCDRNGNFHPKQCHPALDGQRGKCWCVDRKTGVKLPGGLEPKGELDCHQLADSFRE

[8] = target: PDGFRB (prey, CIC format) (human) (UniProt P09619); experiment: SIMPL ELISA, bait-IN/prey-CIC
[9] = target: PEX16 (prey, CIC format) (human) (UniProt Q9Y5Y5); experiment: SIMPL ELISA, bait-IN/prey-CIC
Sequence of PEX16 (prey, CIC format) (human) (Q9Y5Y5 whole entry): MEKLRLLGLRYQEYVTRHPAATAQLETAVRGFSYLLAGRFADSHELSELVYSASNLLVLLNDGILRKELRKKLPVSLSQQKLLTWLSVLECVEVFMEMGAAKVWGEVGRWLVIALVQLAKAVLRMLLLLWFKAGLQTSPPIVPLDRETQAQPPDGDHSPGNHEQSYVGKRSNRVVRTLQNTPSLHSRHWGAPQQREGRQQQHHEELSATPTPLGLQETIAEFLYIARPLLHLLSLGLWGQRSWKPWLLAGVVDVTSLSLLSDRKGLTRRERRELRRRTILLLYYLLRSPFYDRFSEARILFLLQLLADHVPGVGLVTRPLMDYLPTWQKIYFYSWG

[10] = target: RAD23A (prey, CIC format) (human) (UniProt P54725); experiment: SIMPL ELISA, bait-IN/prey-CIC
Sequence of RAD23A (prey, CIC format) (human) (P54725 whole entry): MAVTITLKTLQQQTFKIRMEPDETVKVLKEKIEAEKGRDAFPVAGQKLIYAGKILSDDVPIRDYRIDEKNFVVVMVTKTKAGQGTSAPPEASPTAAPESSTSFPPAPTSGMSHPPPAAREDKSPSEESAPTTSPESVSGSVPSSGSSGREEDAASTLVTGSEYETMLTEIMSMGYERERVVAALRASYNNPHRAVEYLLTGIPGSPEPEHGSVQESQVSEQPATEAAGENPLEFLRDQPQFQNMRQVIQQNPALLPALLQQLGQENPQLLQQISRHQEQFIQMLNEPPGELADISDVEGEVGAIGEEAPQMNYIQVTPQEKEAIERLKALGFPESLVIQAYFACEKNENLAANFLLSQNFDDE

[11] = target: T3, PEX11B (prey, CIC format) (human) (UniProt O96011); experiment: SIMPL ELISA, bait-IN/prey-CIC
T3 sequence (looked up): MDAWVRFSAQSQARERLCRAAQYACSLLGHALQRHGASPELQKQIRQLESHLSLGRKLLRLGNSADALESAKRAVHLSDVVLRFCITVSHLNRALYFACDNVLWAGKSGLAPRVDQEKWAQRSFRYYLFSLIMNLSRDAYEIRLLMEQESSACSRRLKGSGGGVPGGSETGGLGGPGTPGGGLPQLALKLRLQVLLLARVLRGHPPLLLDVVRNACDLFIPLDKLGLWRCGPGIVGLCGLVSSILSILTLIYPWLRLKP

[12] = target: CCNA1 (prey, CIC format) (human) (UniProt P78396); experiment: SIMPL ELISA, bait-IN/prey-CIC
Sequence of CCNA1 (prey, CIC format) (human) (P78396 whole entry): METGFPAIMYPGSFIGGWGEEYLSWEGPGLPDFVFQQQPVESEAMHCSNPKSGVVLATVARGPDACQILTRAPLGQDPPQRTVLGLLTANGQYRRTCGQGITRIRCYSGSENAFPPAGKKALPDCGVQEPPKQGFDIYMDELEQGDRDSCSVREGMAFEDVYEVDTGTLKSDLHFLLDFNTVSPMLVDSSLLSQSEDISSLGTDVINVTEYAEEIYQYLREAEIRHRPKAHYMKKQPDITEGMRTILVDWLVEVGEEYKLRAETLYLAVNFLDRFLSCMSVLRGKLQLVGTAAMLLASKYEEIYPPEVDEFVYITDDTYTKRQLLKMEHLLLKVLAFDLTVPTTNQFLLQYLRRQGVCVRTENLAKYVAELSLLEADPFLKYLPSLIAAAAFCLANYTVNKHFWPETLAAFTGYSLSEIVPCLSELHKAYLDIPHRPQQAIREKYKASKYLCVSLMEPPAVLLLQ

[13] = target: T4, ARFIP2 (prey, CIC format) (human) (UniProt P53365); experiment: SIMPL ELISA, bait-IN/prey-CIC
T4 sequence (looked up): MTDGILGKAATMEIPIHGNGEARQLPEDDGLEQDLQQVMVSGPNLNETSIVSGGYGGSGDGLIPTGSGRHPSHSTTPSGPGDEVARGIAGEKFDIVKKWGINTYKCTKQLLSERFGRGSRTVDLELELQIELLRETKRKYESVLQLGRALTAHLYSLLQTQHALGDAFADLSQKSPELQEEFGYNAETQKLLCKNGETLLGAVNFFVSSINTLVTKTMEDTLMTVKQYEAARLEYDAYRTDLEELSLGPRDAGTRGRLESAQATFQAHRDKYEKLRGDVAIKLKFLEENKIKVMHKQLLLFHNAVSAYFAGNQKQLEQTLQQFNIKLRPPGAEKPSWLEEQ

[14] = target: SKP2 (prey, CIC format) (human) (UniProt Q13309); experiment: SIMPL ELISA, bait-IN/prey-CIC
Sequence of SKP2 (prey, CIC format) (human) (Q13309 whole entry, canonical isoform): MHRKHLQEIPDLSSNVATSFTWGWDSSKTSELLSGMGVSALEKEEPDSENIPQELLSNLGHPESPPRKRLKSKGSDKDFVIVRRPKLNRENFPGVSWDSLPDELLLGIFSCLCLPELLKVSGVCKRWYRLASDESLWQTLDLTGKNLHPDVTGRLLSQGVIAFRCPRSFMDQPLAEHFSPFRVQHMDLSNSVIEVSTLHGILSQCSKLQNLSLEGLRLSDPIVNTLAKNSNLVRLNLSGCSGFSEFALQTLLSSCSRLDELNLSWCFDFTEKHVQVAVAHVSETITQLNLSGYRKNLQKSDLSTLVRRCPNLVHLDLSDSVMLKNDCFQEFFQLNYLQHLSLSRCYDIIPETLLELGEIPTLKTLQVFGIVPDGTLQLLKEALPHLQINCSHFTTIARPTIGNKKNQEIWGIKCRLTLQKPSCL

[15] = target: SKR-2 (C. elegans prey, CIC format) (C. elegans); experiment: SIMPL ELISA, C. elegans lysate, IN/CIC; ratio of spliced signal to total signal
[16] = target: SKR-2 (C. elegans prey, IC format) (C. elegans); experiment: SIMPL ELISA, C. elegans lysate, IN/IC; ratio of spliced signal to total signal
[17] = target: CDK6 (prey, CIC format) (human) (UniProt Q00534); experiment: SIMPL ELISA, bait-IN/prey-CIC
Sequence of CDK6 (prey, CIC format) (human) (Q00534 whole entry): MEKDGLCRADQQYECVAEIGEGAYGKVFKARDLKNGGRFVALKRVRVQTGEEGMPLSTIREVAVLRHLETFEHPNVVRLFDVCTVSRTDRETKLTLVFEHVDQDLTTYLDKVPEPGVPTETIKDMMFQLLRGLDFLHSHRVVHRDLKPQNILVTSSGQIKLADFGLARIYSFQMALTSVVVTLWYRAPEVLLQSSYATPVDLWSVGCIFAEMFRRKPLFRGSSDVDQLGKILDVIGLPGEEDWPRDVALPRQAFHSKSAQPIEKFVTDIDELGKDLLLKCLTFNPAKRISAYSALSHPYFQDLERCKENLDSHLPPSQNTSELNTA

[18] = target: SMAD4 (prey, CIC format) (human) (UniProt Q13485); experiment: SIMPL ELISA, bait-IN/prey-CIC
Sequence of SMAD4 (prey, CIC format) (human) (Q13485 whole entry): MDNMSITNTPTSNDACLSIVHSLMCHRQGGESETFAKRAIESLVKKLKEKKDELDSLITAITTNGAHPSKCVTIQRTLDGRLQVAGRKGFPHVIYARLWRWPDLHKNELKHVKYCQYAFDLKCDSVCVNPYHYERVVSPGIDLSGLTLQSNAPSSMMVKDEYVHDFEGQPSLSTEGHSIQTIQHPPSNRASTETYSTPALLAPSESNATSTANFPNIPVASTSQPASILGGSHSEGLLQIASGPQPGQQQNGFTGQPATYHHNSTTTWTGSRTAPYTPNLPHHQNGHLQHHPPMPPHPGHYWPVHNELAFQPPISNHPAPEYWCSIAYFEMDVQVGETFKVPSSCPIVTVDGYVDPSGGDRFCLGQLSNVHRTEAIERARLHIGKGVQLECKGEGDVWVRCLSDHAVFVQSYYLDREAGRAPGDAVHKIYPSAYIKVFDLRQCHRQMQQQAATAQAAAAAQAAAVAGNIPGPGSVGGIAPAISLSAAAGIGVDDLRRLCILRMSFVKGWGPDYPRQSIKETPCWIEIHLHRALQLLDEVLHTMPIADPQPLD

[19] = target: CXCR2 (prey, CIC format) (human) (UniProt P25025); experiment: SIMPL ELISA, bait-IN/prey-CIC
Sequence of CXCR2 (prey, CIC format) (human) (P25025 whole entry): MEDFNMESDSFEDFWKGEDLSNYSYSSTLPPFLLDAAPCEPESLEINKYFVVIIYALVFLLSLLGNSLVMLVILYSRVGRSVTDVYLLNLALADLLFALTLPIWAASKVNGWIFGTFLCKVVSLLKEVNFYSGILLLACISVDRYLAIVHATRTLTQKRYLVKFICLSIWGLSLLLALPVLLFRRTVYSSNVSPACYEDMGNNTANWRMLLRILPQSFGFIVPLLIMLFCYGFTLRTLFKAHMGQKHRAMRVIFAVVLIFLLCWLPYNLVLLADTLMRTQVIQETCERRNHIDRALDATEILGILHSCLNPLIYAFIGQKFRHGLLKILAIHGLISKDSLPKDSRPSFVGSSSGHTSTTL

[20] = target: T5, RB1 (prey, CIC format) (human) (UniProt P06400); experiment: SIMPL ELISA, bait-IN/prey-CIC
T5 sequence (looked up): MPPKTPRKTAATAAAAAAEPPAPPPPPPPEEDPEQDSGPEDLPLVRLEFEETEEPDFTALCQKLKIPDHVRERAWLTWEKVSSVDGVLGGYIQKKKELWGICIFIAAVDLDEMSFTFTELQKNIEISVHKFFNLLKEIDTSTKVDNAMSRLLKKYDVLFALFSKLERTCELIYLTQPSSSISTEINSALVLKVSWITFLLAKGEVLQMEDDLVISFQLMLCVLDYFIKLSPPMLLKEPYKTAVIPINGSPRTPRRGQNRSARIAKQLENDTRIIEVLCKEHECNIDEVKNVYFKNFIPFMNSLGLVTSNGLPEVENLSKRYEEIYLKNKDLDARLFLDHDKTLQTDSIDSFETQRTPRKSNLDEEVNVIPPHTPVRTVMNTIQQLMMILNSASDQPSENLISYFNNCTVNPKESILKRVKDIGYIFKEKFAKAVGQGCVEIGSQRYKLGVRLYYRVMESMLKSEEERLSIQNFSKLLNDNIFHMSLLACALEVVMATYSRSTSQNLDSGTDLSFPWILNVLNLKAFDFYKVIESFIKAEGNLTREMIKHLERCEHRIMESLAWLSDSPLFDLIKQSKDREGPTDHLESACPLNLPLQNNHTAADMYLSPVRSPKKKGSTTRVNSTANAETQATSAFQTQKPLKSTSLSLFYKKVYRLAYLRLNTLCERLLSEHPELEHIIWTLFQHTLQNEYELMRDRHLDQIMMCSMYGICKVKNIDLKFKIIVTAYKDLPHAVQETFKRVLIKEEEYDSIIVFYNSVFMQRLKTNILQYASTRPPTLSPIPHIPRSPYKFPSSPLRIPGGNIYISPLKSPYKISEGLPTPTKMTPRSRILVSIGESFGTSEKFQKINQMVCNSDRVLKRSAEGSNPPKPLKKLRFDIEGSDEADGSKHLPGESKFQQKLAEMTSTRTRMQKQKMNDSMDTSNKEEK

[21] = target: FGFR1 (prey, CIC format) (human) (UniProt P11362); experiment: SIMPL ELISA, bait-IN/prey-CIC
[22] = target: NCK1 (prey, CIC format) (human) (UniProt P16333); experiment: SIMPL ELISA, bait-IN/prey-CIC
[23] = target: HSP90AA1 (prey, CIC format) (human) (UniProt P07900); experiment: SIMPL ELISA, bait-IN/prey-CIC
[24] = target: RPA3 (prey, CIC format) (human) (UniProt P35244); experiment: SIMPL ELISA, bait-IN/prey-CIC
[25] = target: RAP1A (prey, CIC format) (human) (UniProt P62834); experiment: SIMPL ELISA, bait-IN/prey-CIC
Sequence of RAP1A (prey, CIC format) (human) (P62834 whole entry): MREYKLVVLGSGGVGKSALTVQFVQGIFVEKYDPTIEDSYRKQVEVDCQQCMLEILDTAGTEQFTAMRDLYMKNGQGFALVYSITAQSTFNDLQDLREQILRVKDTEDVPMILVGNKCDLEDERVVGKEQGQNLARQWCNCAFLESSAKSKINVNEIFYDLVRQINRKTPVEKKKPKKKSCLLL

[26] = target: NFE2L1 (prey, CIC format) (human) (UniProt Q14494); experiment: SIMPL ELISA, bait-IN/prey-CIC

Sequence of FOS (prey, CIC format) (human) (P01100 whole entry): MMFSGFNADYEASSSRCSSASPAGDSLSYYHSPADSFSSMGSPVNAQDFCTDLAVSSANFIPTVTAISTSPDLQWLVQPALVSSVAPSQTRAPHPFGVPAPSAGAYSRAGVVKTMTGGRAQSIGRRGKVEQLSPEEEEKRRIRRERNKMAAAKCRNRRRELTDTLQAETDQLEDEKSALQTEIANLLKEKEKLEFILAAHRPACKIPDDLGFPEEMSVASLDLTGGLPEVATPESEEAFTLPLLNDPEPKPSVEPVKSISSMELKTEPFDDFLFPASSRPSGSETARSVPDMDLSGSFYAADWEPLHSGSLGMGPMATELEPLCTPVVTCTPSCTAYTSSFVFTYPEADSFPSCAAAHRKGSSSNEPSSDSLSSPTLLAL
Sequence of RIPK2 (bait, IN format) (O43353 whole entry): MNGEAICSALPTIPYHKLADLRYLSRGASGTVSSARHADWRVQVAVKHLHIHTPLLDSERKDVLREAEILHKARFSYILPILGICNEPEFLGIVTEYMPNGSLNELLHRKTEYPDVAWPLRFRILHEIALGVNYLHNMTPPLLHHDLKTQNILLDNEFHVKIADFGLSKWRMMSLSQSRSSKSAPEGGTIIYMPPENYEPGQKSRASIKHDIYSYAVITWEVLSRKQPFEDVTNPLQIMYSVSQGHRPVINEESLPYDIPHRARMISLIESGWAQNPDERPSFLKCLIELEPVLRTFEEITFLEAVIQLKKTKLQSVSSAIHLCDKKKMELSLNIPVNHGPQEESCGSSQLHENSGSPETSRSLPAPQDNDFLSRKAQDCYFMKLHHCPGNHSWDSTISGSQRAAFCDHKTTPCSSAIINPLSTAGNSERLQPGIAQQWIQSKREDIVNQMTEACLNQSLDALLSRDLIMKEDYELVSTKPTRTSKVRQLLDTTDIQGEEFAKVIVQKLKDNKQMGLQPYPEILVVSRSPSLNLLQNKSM

PLU mean [1]: 0.599
Substance: PTK2/FAK (bait, IN format) (from UniProt Q05397 1-1052) (enzyme)

PLU mean [2]: 0.642
PLU mean [3]: 0.0963
Substance: DDIT3 (bait, IN format) (from UniProt P35638 1-169)

PLU mean [2]: 0.481
PLU mean [4]: 0.836
Substance: NF2 (bait, IN format) (from UniProt P35240 1-595)

PLU mean [5]: 3.24
PLU mean [6]: 0.133
Substance: GTF2F1 (bait, IN format) (from UniProt P35269 1-517)

PLU mean [7]: 0.555
PLU mean [6]: 1.17
PLU mean [8]: 0.881
Substance: RIPK2 (bait, IN format) (from UniProt O43353 1-540)

PLU mean [9]: 0.0408
PLU mean [10]: 0.0155
Substance: B2M (bait, IN format) (from UniProt P61769 21-119)

PLU mean [9]: 0.231
Substance: MAPK7 (bait, IN format) (from UniProt Q13164 1-816) (enzyme)

PLU mean [11]: 0.113
PLU mean [12]: 0.516
Substance: CDKN1A (bait, IN format) (from UniProt P38936 1-164)

PLU mean [2]: 0.245
Substance: PPP3CA (bait, IN format) (from UniProt Q08209 1-521)

PLU mean [13]: 0.491
PLU mean [14]: 0.301
Substance: ARF1 (bait, IN format) (from UniProt P84077 1-181)

ELISA Value Replicate 1 [15]: 0.73
ELISA Value Replicate 2 [15]: 0.42
ELISA Value Replicate 1 [16]: 0.84
ELISA Value Replicate 2 [16]: 0.58
Substance: FBXA-215 (C. elegans bait, IN-V5/HA)

PLU mean [17]: 0.316
Substance: TNFSF10 (bait, IN format) (from UniProt P50591 1-281) (ligand)

ELISA Value Replicate 1 [16]: 0.78
ELISA Value Replicate 2 [16]: 0.55
Substance: T10E9.1 (C. elegans bait, IN-V5/HA)

PLU mean [18]: 0.399
PLU mean [19]: 0.144
Substance: SMAD3 (bait, IN format) (from UniProt P84022 1-425)

PLU mean [20]: 0.324
PLU mean [21]: 0.334
PLU mean [22]: 0.374
Substance: FGF1 (bait, IN format) (from UniProt P05230 1-155) (ligand)

ELISA Value Replicate 1 [15]: 1.1
ELISA Value Replicate 2 [15]: 0.28
ELISA Value Replicate 1 [16]: 0.81
ELISA Value Replicate 2 [16]: 0.51
Substance: FBXA-196 (C. elegans bait, IN-V5/HA)

Substance: IGF2 (bait, IN format) (from UniProt P01344 25-180) (ligand)
PLU mean [7]: 0.943
PLU mean [13]: 0.266
PLU mean [23]: 0.404
PLU mean [24]: 0.525

PLU mean [25]: 0.564
Substance: BAK1 (bait, IN format) (from UniProt Q16611 1-211)

PLU mean [26]: 0.131
Substance: GRAP2 (bait, IN format) (from UniProt O75791 1-330)

PLU mean [25]: 0.578
Substance: RAF1 (bait, IN format) (from UniProt P04049 1-648) (enzyme)

PLU mean [17]: 2.72
Substance: CCND3 (bait, IN format) (from UniProt P30281 1-292)

PLU mean [13]: 0.324
Substance: HIF1A (bait, IN format) (from UniProt Q16665 1-826)
